Laboratory results published in patent publication US20100184959A1 (AstraZeneca / MedImmune, published 2010).

How the values were obtained:
[1] = biological target: T1, human FcγRIIIa V158 allotype, extracellular domain (human, UniProt P08637 17-208); assay: RIA, 35S-labelled Fc on coated receptor
T1 construct: extracellular domain; expressed in HEK-EBNA cells; also called hFcγRIIIa; CD16; not shown: Flag10His tag of the vector
From the text: Fc polypeptide variants were screened for binding to FcγRIIIa using a RIA (radio immunoassay) as described in Jermutus et al. (2001, PNAS 98(1): 75-80). The Fc region from the plasmid for each variant was PCR amplified to produce a linear DNA template. This template was purified and a T7 promoter sequence attached at the 5′ end to enable in vitro transcription. The resulting mRNA was purified using G25 Sephadex™ columns. For each variant, in vitro translations in the presence of 35S-labelled methionine were set up at 37° C. for 40 min. The translations were stopped using PBS with 0.05% Tween 20. The translation mixture was added to a plate coated with 100 nM hFcγRIIIa and incubated for 2 hours at room temperature. The plates were washed three times in PBS with 0.05% Tween 20 and three times in PBS. The bound protein was eluted with 0.1M triethylamine and the radiolabel quantified by liquid scintillation counting.

human C1q = biological target: T2, human C1q (human, UniProt P02745 23-245; P02746 28-253; P02747 29-245); assay: RIA, 35S-labelled Fc on coated C1q
T2 construct: Human C1q (Sigma) in the ELISA; hC1q coated at 100 nM in the RIA; also called hC1q
T2 sequence (P02745 23-245 limits assumed, chain 1 of 3): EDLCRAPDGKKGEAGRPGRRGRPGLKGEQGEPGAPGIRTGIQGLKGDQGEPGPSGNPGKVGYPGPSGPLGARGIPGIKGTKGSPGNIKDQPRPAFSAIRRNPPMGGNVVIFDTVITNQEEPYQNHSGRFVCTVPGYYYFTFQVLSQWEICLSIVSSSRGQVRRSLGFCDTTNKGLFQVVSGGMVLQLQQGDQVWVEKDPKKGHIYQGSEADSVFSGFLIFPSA
T2 sequence (P02746 28-253 limits assumed, chain 2 of 3): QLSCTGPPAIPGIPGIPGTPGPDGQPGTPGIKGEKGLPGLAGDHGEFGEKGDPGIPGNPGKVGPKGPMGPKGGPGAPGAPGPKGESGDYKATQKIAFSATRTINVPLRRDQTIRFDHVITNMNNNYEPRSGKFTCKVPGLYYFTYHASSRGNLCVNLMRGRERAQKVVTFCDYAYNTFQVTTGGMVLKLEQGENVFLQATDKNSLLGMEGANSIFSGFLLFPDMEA
T2 sequence (P02747 29-245 limits assumed, chain 3 of 3): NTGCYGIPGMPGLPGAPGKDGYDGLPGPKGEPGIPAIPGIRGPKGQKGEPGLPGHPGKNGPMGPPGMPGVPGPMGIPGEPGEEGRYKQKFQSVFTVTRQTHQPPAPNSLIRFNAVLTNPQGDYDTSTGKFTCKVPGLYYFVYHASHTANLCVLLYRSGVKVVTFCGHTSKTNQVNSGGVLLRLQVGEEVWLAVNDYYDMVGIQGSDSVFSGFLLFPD
From the text: IgG1 Fc variants arising from round three outputs of Fcγ1 selections against human C1q using ribosome display, were screened for binding using the primary RIA as described in Jermutus et al. (2001, PNAS 98(1): 75-80). In brief, the Fc region from the plasmid for each variant (96 well format) was PCR amplified to produce a linear DNA template. This template was gel purified and reamplified attaching the T7 promoter sequence for T7 directed in vitro transcription and the resulting mRNA purified on G25 Sephadex columns. For each variant, in vitro translations in the presence of 35S-labelled methionine was performed at 37° C. for 40 mins. The translations were stopped with PBS with 0.05% Tween 20. The translation mixture was incubated on a plate coated with 100 nM hC1q for 2 hours at room temperature. Plates were washed three times in PBS with 0.05% Tween 20 and three times in PBS. The remaining radioactivity was eluted with 0.1M triethylamine and quantified by liquid scintillation counting.

T1 sequence (P08637 17-208 F176V): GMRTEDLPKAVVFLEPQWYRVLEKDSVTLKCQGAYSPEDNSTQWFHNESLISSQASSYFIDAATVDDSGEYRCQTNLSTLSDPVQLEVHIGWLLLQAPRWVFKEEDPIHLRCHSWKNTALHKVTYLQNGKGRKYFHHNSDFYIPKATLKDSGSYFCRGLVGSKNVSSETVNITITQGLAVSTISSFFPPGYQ

Binder	RIA for RIIIa (V158) [1] [fold over wild-type]	RIA for C1q (human C1q) [fold over wild-type]
Fc polypeptide variant 136D04b (Fcγ1, in vitro translated) (other, Fc region only, in vitro translated with 35S-methionine for RIA) AHTCPPCPAPELLGGPSVFLFPPKPKDTLMISRTPEVTCVVVDVSHEDPEVKFNWYVDGVEVHNAKTKPREEQYNSTYRVVSVLTVLHQDWLNGKEYKCKVSNKALPAPIEKIISKAKGQPREPQVYTLPPSREEMTKNQVSLTCLVKGFYPSDIAVEWESNGQPENNYKTTPPVLDSDGSFFLYSKLTVDMSRWQQGNVFSCSVMHEALHNHYTQKSLSLSPGK	2.3	–
Fc polypeptide variant 3C11 (Fcγ1, in vitro translated) (other, Fc region only, in vitro translated with 35S-methionine for RIA) AHTCPPCPAPELLGGPSVFLFPPKPKDTLMISRTPEVTCVVVDVSHEDPEVKFNWYVDGVEVHNAKTKPREEQYNSTYRVVSVLTVLHQDWLNGKEYKCKVSNKALPAPIEKTISKAKGQPREPRVYTLPPSREEMTKYQVSLTCLVKGFYPSDIAVEWESNGQPENNYKTTPPVLDSDGSFFLYSKLTVDKSRWQQGNVFSCSVMHEALHNHYTQRSLSLSPGK	–	1.2
Fc polypeptide variant 135E07 (Fcγ1, in vitro translated) (other, Fc region only, in vitro translated with 35S-methionine for RIA) AYTCPPCSAPELLGGPSVFLFPPKPKDTLMISRTPEVTCVVVDVSHEDPEVKFNWYVDGVEVHNAKTKPREEQYNSTYRVVSVLTVLHQDWLNGKEYKCKASNKALPAPIDKTISRAKGQPREPQVYTLPPSREEMTKNQVCLTCLVKGFYPSDIAVEWESNGQPENNYKTTPPVLDSDGSFFLYSKLTVDKSRWQQGNVFSCSVMHEALHNHYTQKSLSLSPGK	1.7	–
Fc polypeptide variant 125E05 (Fcγ1, in vitro translated) (other, Fc region only, in vitro translated with 35S-methionine for RIA) AHTCPPCPAPELLGGPSAFLFPPKPKDTLMISRTPEVTCVVVDVGHEDPEVKFNWYVDGVEVHNAKTKPREEQYNSTYRVVSVLTVLHQDWLNGKEYKCKVSNKALPAPIEKTISKAKEQPREPQVYTLPPSRGEMTKNQVSLTCLVKGFYPSDIAVEWESNGQPENNYKTTPPVLDSDGSFFLYSKLTVDKSRWQQGNVFSCSVMHEALHNHYTQKSLSLSPGK	4.7	–
Fc polypeptide variant 2A11 (Fcγ1, in vitro translated) (other, Fc region only, in vitro translated with 35S-methionine for RIA) AHTCPPCPAPELLGGPSVFLFPPKPKDTLMISRTPEVTYVVVDVSHEDPEVKFNWYVDGVEVHNAKTEPREEQYNSTYRVVSVFTVLHRDWLNGKEYKCKVSNKALPAPIGKTISKAKGQPREPQVYTLPPSREEMTKNQVSLTCLVKGFYPSDIAVEWESNGQPENNYKTTPPVLDSDGSFFLYSKLTVDKSRWQQGNVFSCSVMHEALHNHYTLKSLSLSPGK	–	2.4
Fc polypeptide variant 125B01 (Fcγ1, in vitro translated) (other, Fc region only, in vitro translated with 35S-methionine for RIA) ANTCPPCPAPELLGGPSVFLLPPKPKDTLMISRTPEVTCVVVDVSHEDPEVKFNWYVDGVEVHNAKTKPREEQYNSTYRVVSVLTVLHQDWLNGKEYKCKVSNKALPAPIEKTISKAKGQPREPQVYTLPPSREEMTKNQVSLTCLVKGFYPSDIAVEWESNGQPENNYKATPPVLDSDGSFFLYSKLTVDKSRWQQGNVFSCSVMHEALPNHYTQKSLSLSPGK	1.3	–
Fc polypeptide variant 121F02 (Fcγ1, in vitro translated) (other, Fc region only, in vitro translated with 35S-methionine for RIA) AHTCPPCPAPELLGGPSVFLSPPKLKDTLMISRTPEVTCVVVVASHEDPEVKFNWYVDGVEVHNAKTKPREEQYNSTYRVVSVLTVLHQDWLNGKEYKCKVSNKALPAPIEKTISKAKGQPREPQVYTLPPSREEMTKNQVSLTCLVKGFYPSDIAVEWENNGQPENNYKTTPPVLDSDGSFFLYSKLIVDKSRWQQGNVFSCSVMHEALHNHYTQKSLSLSPGK	1.7	–
Fc polypeptide variant 2H06 (Fcγ1, in vitro translated) (other, Fc region only, in vitro translated with 35S-methionine for RIA) AHTCPPCPAPELLGGPSVFLFPPKPKDTLMISRTPEVTCVVVDVSHGDPEVKFNWHVDGVEVHNAKTKPREEQYNSTYRVVSVLTVLHQDWLNGKEYKCKVSSKALPAPIEKTISKAKGQPREPQVYTLPPSREEMTKNQVSLTCLVRGFYPSDIAVEWESNGQPENNYKTTPPVLDSDGSFFLYSKLTVDKSRWQQGNVFSCSVMHEALHNHYTQKSLSLSPGK	–	1.2
Fc polypeptide variant 136D04a (Fcγ1, in vitro translated) (other, Fc region only, in vitro translated with 35S-methionine for RIA) AHTCPPCPAPELLGGPSVFLFPPKPKDTLMISRTPEVTCVVVDVSHEDPEVKFNWYVDGVEVHNAKTKPREEQYNSTYRVVSVLTVLHQDWLNGKEYKCKVSNKALPAPIEKIISKAKGQPREPQVYTLPPSREEMTKNQVSLTCLVKGFYPSDIAVEWESNGQPENNYKTTPPVLDSDGSFFLYSKLTVDMSRWQQGNVFSCSVMHEALHNHYTQKSLSLSRGK	2.3	–
Fc polypeptide variant 136G11 (Fcγ1, in vitro translated) (other, Fc region only, in vitro translated with 35S-methionine for RIA) AHTCPPCPAPELLGGPSVFLFPPKAKDTLMISRTPKVTCVVVDVSHEDPEVKFNWYVNGVEVHNARTKPREEQYDSAYRVVSVLTVLHQDWLNGKEYKCEVSNKALPAPIEKTISKAKGRPREPQVYTLPPAREEMTKNQVSPTCLVKGFYPSDIAVEWESNGQPENNYKTTPPVLDSDGSFFLYSKLTVDKSRWQQGNVFSCSVMHEALHNHYTQKSLSLSPGK	2.3	–
Fc polypeptide variant 126F07 (Fcγ1, in vitro translated) (other, Fc region only, in vitro translated with 35S-methionine for RIA) AHTCPLCPAPELLGGPSVFLFPPKPKDTLMISRTPEVTCVVVDVSHEDPEVKFNWYVDGVEVHNAKAKPREEQYNSTYRVVSVLTVLHQDWLNGKEYKCKVSNKALPAPIEKTISKAKGQPREPQVYTLPPSREEMTKNQVSQTCLVKGFYPSDIAVEWESNGQPESNYKTTPPVLDSDGSFFLYSKLTVDKSRWQQGNVFSCSVMHEALHNHYTQKGLSLSPGK	1.9	–
Fc polypeptide variant 2C06 (Fcγ1, in vitro translated) (other, Fc region only, in vitro translated with 35S-methionine for RIA) AHTCPPCPAPELLGGPSVFLFPPKPKDTLMISRTPEVTCVVVDVSHEDPEVKFNWYVDGVGVHNAKTKPREEQYNSTYRVVSVLTVLHQDWLKGKEYKCKVSNKALPAPIGKTISKAKGQPQEPQVYTLPPSREEMTKNQVSPTCLVKGFYPSDIAVEWESNGQPENNYKTTPPVLDSDGSFFLYSKLTVDKSRWQQGNVFSCSVMHEALHNHYTQKSLTLSPGK	–	1.4
Fc polypeptide variant 110B09 (Fcγ1, in vitro translated) (other, Fc region only, in vitro translated with 35S-methionine for RIA) AHTCPPCPAPELLGGPSVFLFPPKPKDTLMISRTPEVTCVVVDVSHEDPEVKFDWYVDGVEVHNAKTKPQEEQYNSTYRVVSALTVLHQDWLNGKEYKCKVSNKALPAPIEKTISKAKGQPREPQVYTLPPSREEMTKNQVSLTCLVKGFYPSDVAVEWESNGQPENNYKTAPPVLDSDGSFFLYSKLTADKSRWQQGNVFSCSVMHEALHNHYTQESLSLSPGK	4.4	–
Fc polypeptide variant 126G05 (Fcγ1, in vitro translated) (other, Fc region only, in vitro translated with 35S-methionine for RIA) AHTCPPCPAPELLGGPSVLLFPPKPKDTLMISRTPEVTCVVVDVSHEDPEAKFNWYVDGVEVHNAKTKPREEQYNSTYRVVSVLTVLHQDWLNGKEYKCKVSNKALPAPIEKTISKAQGQPREPQVYTLPPSREEMTKNQVSLTCLVKGFYPSDIAVEWESNGQPENNYKTTPPVLDSDGSFFLYSKLTVDKSRWQQGNVFSCSVMHEALHNHYTQKSFSLSPGK	1.8	–
Fc polypeptide variant 135C09 (Fcγ1, in vitro translated) (other, Fc region only, in vitro translated with 35S-methionine for RIA) AHACPPCPAPELLGGPSVFLFPPKPKDTLMISRTPEVTCVVVDVSHEDPEVKFNWYVDGVEVHNAKTKPREEQYNSTYCVVGVLTVLHQNWLDGKEYKCKVSNKALPAPIEKTISKAKGQPREPQVYTSPPSREEMTKNQVSLTCLVKGFYPSDIAVEWESNGQPENNYKTTPPVLDSDGSFFLYSKLTVDKSRWQQGSVFSCSVMHEALHNHYTQKSLSLSPGK	1.7	–
Fc polypeptide variant 125H10 (Fcγ1, in vitro translated) (other, Fc region only, in vitro translated with 35S-methionine for RIA) AHTCPPCPAPELLGGPSVFLFPPKPKDTLTISRTPEVTCVVVDVSHEDPEVKFNWYVDGVEVHNAKTKLREEQYNSTYRVVSVLTVLHQDWLNGKEYKCKVSNKALPAPIEKTISKAKGQPREPQVYTLAPSWEEMTKNQVSLTCLVKGFYPSDIAVEWESNGQPENDYKTTPPVLDSDGSFFLYGKLTVDKSRWQQGNVFSCFVMHESLHNHYTQKSLSLSPGK	1.7	–
Fc polypeptide variant 135A09 (Fcγ1, in vitro translated) (other, Fc region only, in vitro translated with 35S-methionine for RIA) AHTCPPCPAPELLGGPSVFLFPPKPKDTLMISRTPEVTCVVVDVSHKDPEVKFNWYVDGVEVHNAKTKPREEQYNSTHRVVSVLTVLHQDWLNGKEYKCKVSNKALPAPIEKTISKAKGRPREPQVYTLPPSREEMTKNQVSLTCLVKGFYPSDIAVEWESNGQPENNYKTTPPVLDSDGSFFLYSKLTVDKSRWQQGNIFSCSVMHEALHNHYTQKSLSLSPAK	3.4	–
Fc polypeptide variant 110H08 (Fcγ1, in vitro translated) (other, Fc region only, in vitro translated with 35S-methionine for RIA) AHTCPPCPAPELLGGPSVFLFLPEPKDTLMISRTPEVTCVVVDVSHEDPEVKFNWYVDGVEVHNAKTKPREEQYNSTYRVVSVLTVLHQDWLNGKEYKCKVSNKALPAPIEKTISKAKGQPREPQVYTLPPSREEMTKNQVSLTCLVKGFYPSDIAVEWESNGQPENNYKTTPPVLGSDGSFFLYSRLTVDKSRWQQGNVFSCSVMHEALHNHYTQKSLSLSPGK	2.7	–
